assay: soluble on expression in E. coli; label from the status in PepcDB or PDB records

Sequence	soluble on expression in E. coli
MLSEEDVHTNSYAGRTVAVMEQPDLFSDDCDEINLGNEDTPPSKLRLHTTEEPKESSSPAVINSIEDHDQYVGNDNHYAQISPEPALSNFKVTMREFEKRGDGMNAYIVYKLETEVSGVVGYTKQHYETWRRFSDFLGLHGKIVEKYLAKGIVIPQPPEKSISALTKTKTNSDPAMSREVGIQRARQLERYICRLIQHPRMRNDCDVRDFLTIESDLPKAVQTAALSSFGVKKIFKNFQVVFSKMAFHMEEGDRWFEQVQSQVDELDEALRKLYTVTETLVASRRDMATSGEQLGKALSMLAACEESTSLSRALSSLTDVTENVSAVYGKQAEVDNSKFSESIYEYIMLISALKDVFGERVRAWQQWQDAQQTLARKRDQKTKIDLSAGGRNERSDQLKGEIEDTVQKMDQLEQHFIELSKAIREEVARFDADRKQDMKKMLVEYMESMIHTHTELLHLWEKFEPEANNIRV	not soluble
MLSEQKEIAMQVSGMTCAACAARIEKGLKRMPGVTDANVNLATETVNVIYDPAETGTAAIQEKIEKLGYHVVTEKAEFDIEGMTCAACANRIEKRLNKIEGVANAPVNFALETVTVEYNPKEASVSDLKEAVDKLGYKLKLKGEQDSIEGR	soluble
MLSIREYLEAGETTISNLLFDHYQKIGLKDDEFLFLLQLFRSQNAGDLFPDLMAIAETMGKTPDTIYKLLNQLVSRGFIRIETQQNQKGQMMDTYDLLPVFQKIQLFLQTSKEKQVVANHEDEIKQLYQGFEKEFGRPLSPIELEMIGQWLNTDHYSPELIRLALREAVLNQAYSLKYIDRILLAWERKNITTKEQVAADQKKRKDSMIQNEIEQQGQTQESLPKVTLHNWLNPEDSE	soluble
MLSRKKTKNEVSKPAEVQGKYVKKETSPLLRNLMPSFIRHGPTIPRRTDLCLPDSSATAFSASGDGIVSRNQSFLRTAIQRTPHEVMRRESHRLSAPSYLVRSLADVPRECGSSQSFLTEVNFAVENGDSGSRYFFSDNFFDGQRRRPLGDRAQEDYRYYEYNHDLFQRMPQSQGRHTSGIGRVTATSLGNLTNHGSEDLPLPPGWSVDWTMRGRKYYIDHNTNTTHWSHPLEREGLPPGWERVESSEFGTYYVDHTNKRAQYRHPCAPSVPRYDQPPPITYQPQQTERNQSLLVPANPYHTAEIPDWLQVYARAPVKYDHILKWELFQLADLDTYQGMLKLLFMKELEQIVKLYEAYRQALLTELENRKQRQQWYAQQHGKTFLS	soluble
MLSVEKFRVGERVVWIGVIFSGRVQGIAFAFDRGTLMKRIHDLAEHLGKRGVSISLDVQPSDYPEKVFKVLIGELDNASFLRELSFEGVTPFEKKVYEWLTKNVKRGSVITYGDLAKALNTSPRAVGGAMKRNPYPIVVPCHRVVAHDGIGYYSSGIEEKKFLLEIEGVKEWTS	soluble
MLTEEKVLAALNRVKDRDLNKSIVETGGIRELKISGANVSVKVALAQTGTREQMEIQQEIVNVLKGEGAESVGLRFDQLDETEIEKLGGLPKQEFHGPPLLHPNTSTTFIAVTSGKGGVGKSTVSVNLATTLARLGKKVGIIDADIYGFSVPDMMGIEERPKVVGEQIFPVERFGVKVISMGFFVEDNAPVIWRGPMLGKMLNNFFAEVEWGDLDYLILDLPPGTGDVALDIHTMLPHSKEILVTTPHATAAFVAARAGAMALKTHHEIIGVVENMAYFESKITGEKEYVFGQGGGERLAEELKTEVLGRIPLGQPEIDEDDFAPSVYGATHPIGEIYTAIAKRVIDKTTLEHHHHHH	soluble
MLTERQLLIFRAIIDHFTWTIQPVGSKNLLKEKSLPYSSATIRNEMGVLEEYGFIEKTHSSSGRVPSEKGYRFYVDYLLQPKKLDKSDRQMIRSFFSENYYEMEGLIQNSALMLSDLTNYTSILLGPEATKNHLSGFRFVPINNFQAMLILITDQGHVDNHLVTIPEGTTLSDIERMVNILNERLVGLSLDDLKVQIPMEVKELLGKHVRNYESFMHVFSDSFAQASQQKVYFGGKTNILNQPEFHDINKVREMLHLMEEEQDVYELFRDIPDGLQVKIGRENNNSLMEDCSIITATYNIAGERVGGIVLLGPTRMEYSRMMGLVDVMSRDLTDVLTKLYRDNQN	not soluble
MLTFALTIVRAGETQYNRDKLLQGQGIDTPLSDTGHQQAAAAGRYLKDLHFTNVFVSNLQRAIQTAEIILGNNLHSSATEMILDPLLRERGFGVAEGRPKEHLKNMANAAGQSCRDYTPPGGETLEQVKTRFKMFLKSLFQRMFEEHGSALSSVPSEADQPVIAGLADDGAQNVPVHALMVSHGAFIRISVRHLVEDLQCCLPAGLKMNQVFSPCPNTGISRFIFTIHREESVLRATRIQGVFINRKDHLEEVKNSDLEHHHHHH	soluble
MLTGLKIAVIGGDARQLEIIRKLTEQQADIYLVGFDQLDHGFTGAVKCNIDEIPFQQIDSIILPVSATTGEGVVSTVFSNEEVVLKQDHLDRTPAHCVIFSGISNAYLENIAAQAKRKLVKLFERDDIAIYNSIPTVEGTIMLAIQHTDYTIHGSQVAVLGLGRTGMTIARTFAALGANVKVGARSSAHLARITEMGLVPFHTDELKEHVKDIDICINTIPSMILNQTVLSSMTPKTLILDLASRPGGTDFKYAEKQGIKALLAPGLPGIVAPKTAGQILANVLSKLLAEIQAEEGK	soluble
MLTIHTKLISAMITQSLKDHPIETCGIIAGLAGSNLPLRLIPMRNVAQSENFFMFDPQQQLQVWKEMSARHEEPVVIYHSHTGSEAYPSRSDVELAAEPQAHYVIIPTCSPHKEEIRSFRIVDQMVIEERVQIVRQYQPELEFQMMVALEHHHHHH	not soluble
MLTIPEKENRGSKEQEVAIMIDALADKGKKALEALSKKSQEEIDHIVHQMSLAAVDQHMVLAKLAHEETGRGIYEDKAIKNLYASEYIWNSIKDNKTVGIIGEDKEKGLTYVAEPIGVICGVTPTTNPTSTTIFKAMIAIKTGNPIIFAFHPSAQESSKRAAEVVLEAAMKAGAPKDIIQWIEVPSIEATKQLMNHKGIALVLATGGSGMVKSAYSTGKPALGVGPGNVPSYIEKTAHIKRAVNDIIGSKTFDNGMICASEQVVVIDKEIYKDVTNEFKAHQAYFVKKDELQRLENAIMNEQKTGIKPDIVGKSAVEIAELAGIPVPENTKLIIAEISGVGSDYPLSREKLSPVLALVKAQSTKQAFQICEDTLHFGGLGHTAVIHTEDETLQKDFGLRMKACRVLVNTPSAVGGIGDMYNELIPSLTLGCGSYGRNSISHNVSATDLLNIKTIAKRRNNTQIFKVPAQIYFEENAIMSLTTMDKIEKVMIVCDPGMVEFGYTKTVENVLRQKTEQPQIKIFSEVEPNPSTNTVYKGLEMMVDFQPDTIIALGGGSAMDAAKAMWMFFEHPETSFFGAKQKFLDIGKRTYKIGMPENATFICIPTTSGTGSEVTPFAVITDSETNVKYPLADFALTPDVAIIDPQFVMSVPKSVTADTGMDVLTHAMESYVSVMASDYTRGLSLQAIKLTFEYLKSSVEKGDKVSREKMHNASTLAGMAFANAFLGIAHSIAHKIGGEYGIPHGRANAILLPHIIRYNAKDPQKHALFPKYEFFRADTDYADIAKFLGLKGNTTEALVESLAKAVYELGQSVGIEMNLKSQGVSEEELNESIDRMAELAFEDQCTTANPKEALISEIKDIIQTSYDYKQ	not soluble
MLTLNYYVEITATPQRVWRVLTDAELYKRWAQAFSPQSQFEGEWEEGSDITFFDPDMGGTRAVIDSVQPLHRLEFHHVAIFNPDNRQQLDADIAAKWIGSREIYQIDTEDERLLLNITIHTHSDFVSMFNNGWEKALPLIKSICEETDSQLEHHHHHH	soluble
MLTMSKAVESLQRFLMPKAGEPHDVRMLYLIESEHNNGRAMWNDRHSVAISAGDEVSFQTYFNAFPASYWRRWTQLDNVILRVEVTGTARVDVFRTKIDGASYAEQGQVVSDGVVEFDLSLAPFEDGGWLWFYVTAETDVTFKAGWYAPQAPQPQVMPDGSQVGPFDKRVTVGIPTFNRPTDAVAALTALSEDPEVDAVIDAVIMPDQGNKHPADEPGYKEATEHFGDRFFEFRQGNLGGSGGYSRIMYEALGGVDGTKPAGAAQSPYILYMDDDIAIEPDSVLRALQVARYAKSPILVGGQMLSLQERSHLHSMGEVVDRNIFMWTSAPFVHYDHDFAKYPLSDRPSPDAPSDRPKTEDLHRRIDVDYNGWWMCMIPRVVAEQIGQPLPLFIKWDDAEYGLRAGNAGFATATWPGVAIWHLAWSDKDDAIDWQAYFHLRNRLIVGAIENGNPAGMVRSMQKATLKHLLCLEYSTVAVQNEAMKDFLAGPSHLFDILETSLPHINALRKNYSDAVVLPSAADLPRPSGAPGVPTVYNLSGPLAPVKKVGWLLKGIKHTLSKENPQHHDVPQANLAPINARWFSLSRLDGATVSTADGRGVVYRKRDRAQAKELLQESYRLQKEVAANFDRLREEYRAAHKELTSREAWAKIFEEPQGAEES	not soluble
MLTPISIEKEHIRLINLLHFINEQNRWFTIKELSDYLQVADKTVRKYLKLLEDEIPPSWNLLVQKGKGIYLKKPLNESLSFVESKILRKSLNLQICEELVFKKNSMQSLAQKLHLQVGALYPIINQINYDIQSSHLNIKKKPLEISGREQDVRVFMLRLYCNIPNDYWPFPYINKQNITDLINKMEKILNVQMYTYSKHKLCVLFAITISRLLSGNTIDNVSGLILVNKNDDHYKTVASITSELQNSFGVTLHETEISFLALALLLSLGNSITTDSNKTLTSYKKTIMPLAKEITKGIEHKLQLGINYDESFLTYVVLIIKKALDKNFIQYYNYNIKFIRHIKQRHPNTFNTIQECISNLNYTVYSHFDCYEISLLTMHFETQRMLFKNNPKKIYVYTSQGCIHREYISALLEKRYNGLIKIVRNTIINLTNESLQDMEIDIIISNVNLPIKNIPIVQISEFPTERDFHEIKKII	not soluble
MLTRCQARLLGLTSGEDGGASGSSTSSVPQSPTGVATSGLPRVSGYSIACEASSATSAKPGDPPPFIRRLSLAATSSSSASTAARGCRTNSFFEPSASASKAALHVNSGSGGDGGGGRARLGARPTDAPLSKAQAAIDYWTAASTTAGPSIWFAKDSASPWRALHVSSPKAAVHVTGSFGATLKSADGSSLAGCSARLTAAQLRVRWCGVTRNCSSLHASTRATANGGGAPRASANSVHGVHTAQLSIAACPASTPPRTEFVIEARAGIATSGGDSTGVAQQTDRALAPLNVASRRSLALFTSPFYADVAAPALSASAAALGATEAAALLPVMHQISTQRAAAAALALRQRKEDVRAQRQRRICHEVHNQVYMKAHEVRMRLLFGLSGTDSDAATPAPSGTLAQGHAVAPSAPSKAALGEDHIAADEEAYLQSLNPSKSDEEAKVLRVVASIDAALRRHLASAYKDASQPTFPSESSSADQRVRAADAVADHHHHHHFTDGFAARQPAILEAVIADATRRVESFTGELLPYQQEGVRWLLRLTAVEHMGGILADDMGLGKTAQTVVYLSCYKDMVERVVQGLLEELEQRHARLCQRALGLTVTATGSGALAREAGSVEEGEMPSWLTWCAEATAKGEYISRRTEGRLQRSSSTIQPLMRGVAHGDSIAASAPLAATVEPASTAATPELAAARAWWLHKTCEAGEAMAVAAGGGQGRGRHSCG	not soluble
MLTRLAAVLEERKNAAPDSSYVASLYHKGLNKILEKVGEESVETIIAAKDAAASGDCQDLIYETADLWFHSLVMLSALGQHPQAVLDELERRFG	soluble
MLTSDPSESTAHLQRTISNLSARNAKLAELLKASRDKLSILQDQLEDLAAPPSTYGTFLEFSGGRETAEVFTAGRHMRLRISPDVEKAELVPGVQVRLGEASQVVEVCDISTTGQLATLVELLADNRGLICDHTGEERVVKLAAALTEGVDKLPKAGDTLLVDPRAGYAFEVIPKTEVSTLA	soluble
MLTTDSLKRLWIFSFDRTLTAAGACYSKARLHRVTRQFLEELAALPGHRVAVLSSRPLDDLVSRVPIEGIYLGGSCGTEWHIPGGESMTLSGKPKDMLMETRDALLPTLREVADLPGVELEDRRWSAALHTQEANTKARQTLFARLAAVLKGWRVALYRNTTMVEIQFLPEITMAFGAQALCRFLGYRGDVVCAGSDENDATALRWALNQGGTALSLGRDPLVPGARPVVDVRSLARHVRDLAGIDEHHRTRMAGRRLCNAALEHHHHHH	not soluble

From the DeepSol protein solubility set
